Laboratory results reported in patent EP4786492A1.
Substitutions are numbered along the chain they refer to.

B1: Hab015VL5VH1b-hFc (scFv, part only; not given: VL-VH linker and human IgG1 Fc, V domains shown, not shown: another chain or arm of the molecule; a dimerising Fc or GST; small tags and cut ends)
VL: NIQMTQSPSSLSASVGDRVTITCKASENVGTYVSWYQQKPGKSPKLLIYGASNRYTGVPSRFSGSGSGTDFTLTISSLQPEDFATYYCGQFYSFPSTFGGGTKVEIK
VH: EVQLVESGGGLVKPGGSLRLSCAASGITFSNFWMNWVRQAPGKGLEWVGQIRLKSEDYATHYAESVKGRFTISREDSKNTVYLQMNSLKTEDTAVYYCTTGYYFDYWGQGTTVTVSS
B2: Hab015VL5VH5a-hFc (scFv, part only; not given: scFv linker and human IgG1 Fc, V domains shown, not shown: another chain or arm of the molecule; a dimerising Fc or GST; small tags and cut ends)
VL: B1 VL
VH: B1 VH with A23V, E56D
B3: Hab015VL5VH6a-hFc (scFv, part only; not given: scFv linker and human IgG1 Fc, V domains shown, not shown: another chain or arm of the molecule; a dimerising Fc or GST; small tags and cut ends)
VL: B1 VL
VH: B1 VH with G42E, E56D

The binders below were run against mouse DLL3 on CHO-K1-mDLL3 cells (mouse) (UniProt O88516) (assay: FACS, CHO-K1-mDLL3 cells, 0.032 nM antibody).
Chain of mouse DLL3 on CHO-K1-mDLL3 cells (mouse) (O88516 other isoform, or with tags, fused parts or gaps limits assumed): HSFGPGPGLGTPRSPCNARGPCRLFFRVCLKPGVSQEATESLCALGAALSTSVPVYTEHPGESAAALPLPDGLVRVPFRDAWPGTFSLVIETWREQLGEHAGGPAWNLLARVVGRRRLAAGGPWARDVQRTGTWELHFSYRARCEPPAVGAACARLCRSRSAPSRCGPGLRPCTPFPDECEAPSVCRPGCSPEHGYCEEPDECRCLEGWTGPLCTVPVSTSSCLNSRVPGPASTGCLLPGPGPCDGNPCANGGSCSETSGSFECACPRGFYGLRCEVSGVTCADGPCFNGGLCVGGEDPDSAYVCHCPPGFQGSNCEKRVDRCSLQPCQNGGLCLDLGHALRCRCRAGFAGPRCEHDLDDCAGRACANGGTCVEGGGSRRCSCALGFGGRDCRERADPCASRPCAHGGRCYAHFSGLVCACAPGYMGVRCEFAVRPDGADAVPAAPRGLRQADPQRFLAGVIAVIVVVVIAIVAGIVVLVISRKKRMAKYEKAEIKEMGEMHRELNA

Row | Binder | MFI [MFI]
1 | B1 | 186
2 | B2 | 199
3 | B3 | 185

What follows are binders tested against human DLL3 protein expressed on CHO-K1 recombinant cells (human DLL3 extracellular segment fused to EpCAM transmembrane and intracellular regions) (human) (UniProt Q9NYJ7) (assay: FACS, CHO-K1 hDLL3 cells, 4 nM antibody).
Chain of human DLL3 protein expressed on CHO-K1 recombinant cells (human DLL3 extracellular segment fused to EpCAM transmembrane and intracellular regions) (human) (Q9NYJ7 other isoform, or with tags, fused parts or gaps limits assumed): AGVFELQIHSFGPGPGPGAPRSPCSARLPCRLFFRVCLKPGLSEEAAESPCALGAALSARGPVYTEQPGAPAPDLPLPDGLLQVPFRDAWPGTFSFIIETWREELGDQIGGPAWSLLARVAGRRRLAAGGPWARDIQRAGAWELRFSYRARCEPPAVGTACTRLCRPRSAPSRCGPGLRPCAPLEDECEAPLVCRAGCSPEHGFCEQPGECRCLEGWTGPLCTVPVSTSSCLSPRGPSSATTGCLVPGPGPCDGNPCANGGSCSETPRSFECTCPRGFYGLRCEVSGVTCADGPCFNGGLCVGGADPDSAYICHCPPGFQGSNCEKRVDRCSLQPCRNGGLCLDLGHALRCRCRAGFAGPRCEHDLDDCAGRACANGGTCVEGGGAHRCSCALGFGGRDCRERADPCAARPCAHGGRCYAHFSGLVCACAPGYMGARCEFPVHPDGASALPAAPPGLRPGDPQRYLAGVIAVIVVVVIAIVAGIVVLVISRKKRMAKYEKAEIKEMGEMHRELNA

Row | Binder | MFI [MFI]
4 | B1 | 10300
5 | B2 | 10700
6 | B3 | 9720

The binders below were run against DLL3 endogenously expressed on NCI-H82 cells (UniProt Q9NYJ7) (assay: FACS on NCI-H82 cells; antibody 0.032 nM).
Chain of DLL3 endogenously expressed on NCI-H82 cells (Q9NYJ7 27-618): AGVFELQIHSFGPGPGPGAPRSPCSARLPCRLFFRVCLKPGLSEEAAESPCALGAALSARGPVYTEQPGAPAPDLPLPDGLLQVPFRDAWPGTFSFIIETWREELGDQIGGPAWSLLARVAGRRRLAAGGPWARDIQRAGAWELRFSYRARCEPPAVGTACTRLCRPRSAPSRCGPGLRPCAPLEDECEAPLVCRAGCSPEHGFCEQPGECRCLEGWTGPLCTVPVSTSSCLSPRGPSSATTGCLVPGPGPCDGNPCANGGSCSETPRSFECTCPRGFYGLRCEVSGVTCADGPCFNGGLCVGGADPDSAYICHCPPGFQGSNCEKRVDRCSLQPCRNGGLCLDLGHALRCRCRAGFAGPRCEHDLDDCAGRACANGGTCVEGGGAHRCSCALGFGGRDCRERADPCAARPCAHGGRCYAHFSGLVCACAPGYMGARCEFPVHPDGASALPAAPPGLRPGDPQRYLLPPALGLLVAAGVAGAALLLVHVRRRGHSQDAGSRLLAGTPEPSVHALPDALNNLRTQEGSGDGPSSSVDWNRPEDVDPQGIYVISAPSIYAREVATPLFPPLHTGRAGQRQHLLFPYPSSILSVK

Row | Binder | MFI
7 | B1 | 212
8 | B2 | 230
9 | B3 | 216

These binders were tested against mouse DLL3 on CHO-K1-mDLL3 cells (mouse) (UniProt O88516) (assay: FACS, CHO-K1-mDLL3 cells, 0.16 nM antibody).

Row | Binder | MFI [MFI]
10 | B1 | 361
11 | B2 | 424
12 | B3 | 390

Each binder was assayed against monkey DLL3 on CHO-K1-cyno DLL3 cells (cynomolgus monkey) (assay: FACS, CHO-K1-cyno DLL3 cells, 4 nM antibody).
Chain of monkey DLL3 on CHO-K1-cyno DLL3 cells (cynomolgus monkey) (chain, as listed by the source limits assumed): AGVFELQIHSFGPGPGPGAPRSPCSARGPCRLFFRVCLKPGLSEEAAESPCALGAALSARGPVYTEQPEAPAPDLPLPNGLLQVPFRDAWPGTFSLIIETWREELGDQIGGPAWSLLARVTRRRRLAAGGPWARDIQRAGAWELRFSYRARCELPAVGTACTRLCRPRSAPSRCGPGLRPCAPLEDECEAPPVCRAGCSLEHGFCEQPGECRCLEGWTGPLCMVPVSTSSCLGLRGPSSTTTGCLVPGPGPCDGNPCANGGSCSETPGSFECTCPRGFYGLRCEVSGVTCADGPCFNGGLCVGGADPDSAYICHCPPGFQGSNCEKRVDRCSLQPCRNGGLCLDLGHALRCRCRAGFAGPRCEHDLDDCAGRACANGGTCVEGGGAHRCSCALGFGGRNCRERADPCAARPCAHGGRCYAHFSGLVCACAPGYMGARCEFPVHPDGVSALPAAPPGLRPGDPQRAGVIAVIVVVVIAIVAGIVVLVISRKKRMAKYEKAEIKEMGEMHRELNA

Row | Binder | MFI [MFI]
13 | B1 | 6500
14 | B2 | 6610
15 | B3 | 6080

Each binder was assayed against DLL3 endogenously expressed on NCI-H82 cells (UniProt Q9NYJ7) (assay: FACS on NCI-H82 cells; antibody 4 nM).

Row | Binder | MFI
16 | B1 | 745
17 | B2 | 848
18 | B3 | 827

What follows are binders tested against monkey DLL3 on CHO-K1-cyno DLL3 cells (cynomolgus monkey) (assay: FACS, CHO-K1-cyno DLL3 cells, 0.8 nM antibody).

Row | Binder | MFI [MFI]
19 | B1 | 4140
20 | B2 | 4590
21 | B3 | 4080

The binders below were run against DLL3 endogenously expressed on NCI-H82 cells (UniProt Q9NYJ7) (assay: FACS on NCI-H82 cells; antibody 0.0064 nM).

Row | Binder | MFI
22 | B1 | 139
23 | B2 | 139
24 | B3 | 127

The binders below were run against human DLL1 protein (Acro, Cat. No. DL1-H52H8) (human) (UniProt O00548) (assay: ELISA, coated hDLL1; maximum over 0.1, 1, 10, 100 nM antibody).
Chain of human DLL1 protein (Acro, Cat. No. DL1-H52H8) (human) (O00548 18-540 limits assumed): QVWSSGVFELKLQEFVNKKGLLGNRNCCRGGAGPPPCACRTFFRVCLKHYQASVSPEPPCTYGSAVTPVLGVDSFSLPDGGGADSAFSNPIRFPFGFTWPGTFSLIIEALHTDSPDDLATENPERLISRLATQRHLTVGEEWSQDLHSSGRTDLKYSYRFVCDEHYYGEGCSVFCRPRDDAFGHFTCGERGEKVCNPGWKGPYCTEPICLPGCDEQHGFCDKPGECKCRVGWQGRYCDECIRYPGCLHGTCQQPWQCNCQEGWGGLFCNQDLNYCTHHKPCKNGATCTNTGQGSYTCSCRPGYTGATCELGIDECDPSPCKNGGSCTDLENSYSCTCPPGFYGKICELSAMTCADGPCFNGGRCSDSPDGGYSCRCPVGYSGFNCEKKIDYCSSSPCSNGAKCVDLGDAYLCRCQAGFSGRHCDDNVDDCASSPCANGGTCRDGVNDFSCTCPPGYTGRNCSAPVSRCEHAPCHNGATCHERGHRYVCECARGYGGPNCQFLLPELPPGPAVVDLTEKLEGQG

Row | Binder | Emax of OD450 nm binding value [OD450 nm]
25 | B1 | 0.43
26 | B2 | 0.47
27 | B3 | 0.71

The binders below were run against human DLL3 protein expressed on CHO-K1 recombinant cells (human DLL3 extracellular segment fused to EpCAM transmembrane and intracellular regions) (human) (UniProt Q9NYJ7) (assay: FACS, CHO-K1 hDLL3 cells, 0.0064 nM antibody).

Row | Binder | MFI [MFI]
28 | B1 | 174
29 | B2 | 166
30 | B3 | 153

The binders below were run against human DLL3 protein expressed on CHO-K1 recombinant cells (human DLL3 extracellular segment fused to EpCAM transmembrane and intracellular regions) (human) (UniProt Q9NYJ7) (assay: FACS, CHO-K1 hDLL3 cells, 100 nM antibody).

Row | Binder | MFI [MFI]
31 | B1 | 11800
32 | B2 | 12000
33 | B3 | 11300

The binders below were run against mouse DLL3 on CHO-K1-mDLL3 cells (mouse) (UniProt O88516) (assay: FACS, CHO-K1-mDLL3 cells, 100 nM antibody).

Row | Binder | MFI [MFI]
34 | B1 | 1460
35 | B2 | 1580
36 | B3 | 1530

What follows are binders tested against DLL3 endogenously expressed on NCI-H82 cells (UniProt Q9NYJ7) (assay: FACS on NCI-H82 cells; antibody 20 nM).

Row | Binder | MFI
37 | B1 | 838
38 | B2 | 929
39 | B3 | 937

These binders were tested against human DLL3 protein expressed on CHO-K1 recombinant cells (human DLL3 extracellular segment fused to EpCAM transmembrane and intracellular regions) (human) (UniProt Q9NYJ7) (assay: FACS, CHO-K1 hDLL3 cells, 0.8 nM antibody).

Row | Binder | MFI [MFI]
40 | B1 | 4100
41 | B2 | 4640
42 | B3 | 3960

What follows are binders tested against mouse DLL3 on CHO-K1-mDLL3 cells (mouse) (UniProt O88516) (assay: FACS, CHO-K1-mDLL3 cells, 4 nM antibody).

Row | Binder | MFI [MFI]
43 | B1 | 1160
44 | B2 | 1240
45 | B3 | 1230

These binders were tested against human DLL3 protein expressed on CHO-K1 recombinant cells (human DLL3 extracellular segment fused to EpCAM transmembrane and intracellular regions) (human) (UniProt Q9NYJ7) (assay: FACS, CHO-K1 hDLL3 cells, 0.032 nM antibody).

Row | Binder | MFI [MFI]
46 | B1 | 341
47 | B2 | 339
48 | B3 | 294

Each binder was assayed against mouse DLL3 on CHO-K1-mDLL3 cells (mouse) (UniProt O88516) (assay: FACS, CHO-K1-mDLL3 cells, 20 nM antibody).

Row | Binder | MFI [MFI]
49 | B1 | 1350
50 | B2 | 1440
51 | B3 | 1410

These binders were tested against monkey DLL3 on CHO-K1-cyno DLL3 cells (cynomolgus monkey) (assay: FACS, CHO-K1-cyno DLL3 cells, 100 nM antibody).

Row | Binder | MFI [MFI]
52 | B1 | 7310
53 | B2 | 7380
54 | B3 | 6850

The binders below were run against human DLL3 protein expressed on CHO-K1 recombinant cells (human DLL3 extracellular segment fused to EpCAM transmembrane and intracellular regions) (human) (UniProt Q9NYJ7) (assay: FACS, CHO-K1 hDLL3 cells, 0.16 nM antibody).

Row | Binder | MFI [MFI]
55 | B1 | 980
56 | B2 | 1030
57 | B3 | 883

What follows are binders tested against monkey DLL3 on CHO-K1-cyno DLL3 cells (cynomolgus monkey) (assay: FACS, CHO-K1-cyno DLL3 cells, 0.00128 nM antibody).

Row | Binder | MFI [MFI]
58 | B1 | 140
59 | B2 | 142
60 | B3 | 125

These binders were tested against human DLL4 protein (Acro, Cat. No. DL4-H5227) (human) (UniProt Q9NR61) (assay: ELISA, coated hDLL4; maximum over 0.1, 1, 10, 100 nM antibody).
Chain of human DLL4 protein (Acro, Cat. No. DL4-H5227) (human) (Q9NR61 27-524 limits assumed): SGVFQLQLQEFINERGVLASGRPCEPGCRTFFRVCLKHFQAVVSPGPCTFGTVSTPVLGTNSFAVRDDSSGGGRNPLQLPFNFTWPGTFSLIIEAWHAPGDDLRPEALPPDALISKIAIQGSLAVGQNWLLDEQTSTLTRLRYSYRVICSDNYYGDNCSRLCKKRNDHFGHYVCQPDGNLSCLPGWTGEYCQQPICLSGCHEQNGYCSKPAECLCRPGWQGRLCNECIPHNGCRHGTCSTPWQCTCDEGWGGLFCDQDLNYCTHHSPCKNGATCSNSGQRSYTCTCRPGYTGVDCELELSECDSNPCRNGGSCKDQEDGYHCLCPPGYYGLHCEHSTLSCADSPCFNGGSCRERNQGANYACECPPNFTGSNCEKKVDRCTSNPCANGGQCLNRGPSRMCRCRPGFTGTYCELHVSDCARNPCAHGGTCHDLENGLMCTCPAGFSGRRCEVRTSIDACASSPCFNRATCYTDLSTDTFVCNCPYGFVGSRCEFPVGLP

Row | Binder | Emax of OD450 nm binding value [OD450 nm]
61 | B1 | 0.67
62 | B2 | 0.64
63 | B3 | 0.82

The binders below were run against monkey DLL3 on CHO-K1-cyno DLL3 cells (cynomolgus monkey) (assay: FACS, CHO-K1-cyno DLL3 cells, 0.032 nM antibody).

Row | Binder | MFI [MFI]
64 | B1 | 410
65 | B2 | 428
66 | B3 | 371

These binders were tested against DLL3 endogenously expressed on NCI-H82 cells (UniProt Q9NYJ7) (assay: FACS on NCI-H82 cells; antibody 0.16 nM).

Row | Binder | MFI
67 | B1 | 426
68 | B2 | 473
69 | B3 | 430

The binders below were run against human DLL3 protein expressed on CHO-K1 recombinant cells (human DLL3 extracellular segment fused to EpCAM transmembrane and intracellular regions) (human) (UniProt Q9NYJ7) (assay: FACS, CHO-K1 hDLL3 cells, 0.00128 nM antibody).

Row | Binder | MFI [MFI]
70 | B1 | 137
71 | B2 | 134
72 | B3 | 122

Each binder was assayed against monkey DLL3 on CHO-K1-cyno DLL3 cells (cynomolgus monkey) (assay: FACS, CHO-K1-cyno DLL3 cells, 20 nM antibody).

Row | Binder | MFI [MFI]
73 | B1 | 6970
74 | B2 | 7090
75 | B3 | 6530

These binders were tested against monkey DLL3 on CHO-K1-cyno DLL3 cells (cynomolgus monkey) (assay: FACS, CHO-K1-cyno DLL3 cells, 0.16 nM antibody).

Row | Binder | MFI [MFI]
76 | B1 | 1140
77 | B2 | 1330
78 | B3 | 1150

Each binder was assayed against DLL3 endogenously expressed on NCI-H82 cells (UniProt Q9NYJ7) (assay: FACS on NCI-H82 cells; antibody 0.00128 nM).

Row | Binder | MFI
79 | B1 | 121
80 | B2 | 122
81 | B3 | 117

These binders were tested against DLL3 endogenously expressed on NCI-H82 cells (UniProt Q9NYJ7) (assay: FACS on NCI-H82 cells; antibody 100 nM).

Row | Binder | MFI
82 | B1 | 983
83 | B2 | 1110
84 | B3 | 1220

What follows are binders tested against human DLL3 protein expressed on CHO-K1 recombinant cells (human DLL3 extracellular segment fused to EpCAM transmembrane and intracellular regions) (human) (UniProt Q9NYJ7) (assay: FACS, CHO-K1 hDLL3 cells, 20 nM antibody).

Row | Binder | MFI [MFI]
85 | B1 | 11500
86 | B2 | 12000
87 | B3 | 10900

What follows are binders tested against DLL3 endogenously expressed on NCI-H82 cells (UniProt Q9NYJ7) (assay: FACS on NCI-H82 cells; antibody 0.8 nM).

Row | Binder | MFI
88 | B1 | 711
89 | B2 | 779
90 | B3 | 755

What follows are binders tested against human delta-like ligand 3 (DLL3) on SHP77 cells (human) (UniProt Q9NYJ7) (assay: FACS on SHP77 cells).
Chain of human delta-like ligand 3 (DLL3) on SHP77 cells (human) (Q9NYJ7 27-618, stated change not applied): as the sequence (Q9NYJ7 27-618) above

Row | Binder | MFI at 0.00128 nM [MFI] | MFI at 0.0064 nM [MFI] | MFI at 0.032 nM [MFI] | MFI at 0.16 nM [MFI] | MFI at 0.8 nM [MFI] | MFI at 4 nM [MFI] | MFI at 20 nM [MFI] | MFI at 100 nM [MFI]
91 | B1 | 102 | 118 | 178 | 356 | 632 | 714 | 844 | 1030
92 | B2 | 106 | 122 | 189 | 405 | 666 | 785 | 876 | 1060
93 | B3 | 101 | 117 | 171 | 362 | 663 | 726 | 770 | 1090

What follows are binders tested against mouse DLL3 on CHO-K1-mDLL3 cells (mouse) (UniProt O88516) (assay: FACS, CHO-K1-mDLL3 cells, 0.0064 nM antibody).

Row | Binder | MFI [MFI]
94 | B1 | 131
95 | B2 | 139
96 | B3 | 131

The binders below were run against mouse DLL3 on CHO-K1-mDLL3 cells (mouse) (UniProt O88516) (assay: FACS, CHO-K1-mDLL3 cells, 0.8 nM antibody).

Row | Binder | MFI [MFI]
97 | B1 | 884
98 | B2 | 953
99 | B3 | 870

The binders below were run against monkey DLL3 on CHO-K1-cyno DLL3 cells (cynomolgus monkey) (assay: FACS, CHO-K1-cyno DLL3 cells, 0.0064 nM antibody).

Row | Binder | MFI [MFI]
100 | B1 | 195
101 | B2 | 194
102 | B3 | 169

These binders were tested against mouse DLL3 on CHO-K1-mDLL3 cells (mouse) (UniProt O88516) (assay: FACS, CHO-K1-mDLL3 cells, 0.00128 nM antibody).

Row | Binder | MFI [MFI]
103 | B1 | 122
104 | B2 | 122
105 | B3 | 121
